Experimental data as given in the RNAGym collection of RNA variant scans (doi:10.1093/molbev/msab373).

B1: Azoarcus group I ribozyme (parent)
chain: GUGCCUUGCGCCGGGAAACCACGCAAGGGAUGGUGUCAAAUUCGGCGAAACCUAAGCGCCCGCCCGGGCGUAUGGCAACGCCGAGCCAAGCUUCGGCGCCUGCGCCGAUGAAGGUGUAGAGACUAGACGGCACCCACCUAAGGCAAACGCUAUGGUGAAGGCAUAGUCCAGGGAGUGGCGAAAGUCACACAAACCGG

Variants of: B1
Test: reverse-splicing fitness (ratio to wild type); higher = more active; in vitro selection; Mg2+ level not given
How it was run: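 An in vitro group I ribozyme library with randomized positions was T7-transcribed and gel-purified. In triplicate, 10 pmol RNA in EPPS pH 7.5 was reacted with 50 pmoles of a 30-nt RNA substrate for 1 h at 37 °C across several added MgCl2 levels (1–48 mM), then stopped with EDTA. Products were reverse transcribed from a substrate-complementary primer, PCR-amplified and sequenced (HiSeq 4000). Fitness is a variant's read proportion after selection over that before, normalised to wild type.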
Variant C82G A120U A145G C150U C169U has a reverse-splicing fitness of 0.00803. Work on C82G A120U A145G C150U C169A yielded a reverse-splicing fitness of 0.00606. In the case of C82G A120U A145G C150U C169G, the reverse-splicing fitness is reported as 0.00765. C82G A120G C150G C169G U176C showed a reverse-splicing fitness of 0.00511. For C82G A120G C150G C169G U176G, the reverse-splicing fitness was 0.00466. Work on C82G A120G C150G C169G U176A yielded a reverse-splicing fitness of 0.00768. Variant C82G A120G C150A U176C has a reverse-splicing fitness of 0.0195. C82G A120G C150A U176A showed a reverse-splicing fitness of 0.0119. In the case of C82G A120G C150A U176G, the reverse-splicing fitness is reported as 0.0105. In the case of C82G A120U A145G C150A C169G U176G, the reverse-splicing fitness is reported as 0.00199. C82G A120U A145G C150A C169G U176A showed a reverse-splicing fitness of 0.00555. Work on C82G A120U A145G C150A C169G U176C yielded a reverse-splicing fitness of 0.00422. C82G A120U A145U C150A U176G gave a reverse-splicing fitness of 0.00423. In the case of C82G A120U A145U C150A U176C, the reverse-splicing fitness is reported as 0.0105. Variant C82G A120U A145U C150A U176A has a reverse-splicing fitness of 0.0083. C82G A120G A145G C169A U176A showed a reverse-splicing fitness of 0.0185. For C82G A120G A145G C169A U176C, the reverse-splicing fitness was 0.0269. C82G A120G A145G C169A U176G showed a reverse-splicing fitness of 0.00439. Work on C82G A120U A145C C150G C169G U176A yielded a reverse-splicing fitness of 0.00247. Work on C82G A120U A145C C150G C169G U176G yielded a reverse-splicing fitness of 0.00178. Work on C82G A120U A145C C150G C169G U176C yielded a reverse-splicing fitness of 0.00209. Work on C82G A120U A145G C150A C169A yielded a reverse-splicing fitness of 0.00575. For C82G A120U A145G C150A C169U, the reverse-splicing fitness was 0.00376. Work on C82G A120U A145G C150A C169G yielded a reverse-splicing fitness of 0.00459. Work on C82G A120U A145G U176A yielded a reverse-splicing fitness of 0.0724. C82G A120U A145G U176G gave a reverse-splicing fitness of 0.0134. In the case of C82G A120U A145G U176C, the reverse-splicing fitness is reported as 0.11. In the case of C82G A120U A145C C150G C169U U176A, the reverse-splicing fitness is reported as 0.00213. Work on C82G A120U A145C C150G C169U U176G yielded a reverse-splicing fitness of 0.00182. In the case of C82G A120U A145C C150G C169U U176C, the reverse-splicing fitness is reported as 0.00176. In the case of C82G A120G C150A C169U U176C, the reverse-splicing fitness is reported as 0.02. C82G A120G C150A C169U U176G showed a reverse-splicing fitness of 0.00754. With C82G A120G C150A C169U U176A the reverse-splicing fitness was 0.0248. For C82G A120U A145G C150G C169U U176G, the reverse-splicing fitness was 0.00451. Variant C82G A120U A145G C150G C169U U176A has a reverse-splicing fitness of 0.00829. Work on C82G A120U A145G C150G C169U U176C yielded a reverse-splicing fitness of 0.00701. Work on C82G A120U A145U C150A C169A U176G yielded a reverse-splicing fitness of 0.00156. With C82G A120U A145U C150A C169A U176A the reverse-splicing fitness was 0.00218. With C82G A120U A145U C150A C169A U176C the reverse-splicing fitness was 0.00199. C82G A120G C150G C169U U176G showed a reverse-splicing fitness of 0.00645. In the case of C82G A120G C150G C169U U176A, the reverse-splicing fitness is reported as 0.0113. C82G A120G C150G C169U U176C gave a reverse-splicing fitness of 0.0158. In the case of C82G A120U A145G C169U U176G, the reverse-splicing fitness is reported as 0.00154. With C82G A120U A145G C169U U176A the reverse-splicing fitness was 0.00419. C82G A120U A145G C169U U176C gave a reverse-splicing fitness of 0.00453. Work on C82G A120G C150G U176G yielded a reverse-splicing fitness of 0.00387. C82G A120G C150G U176C gave a reverse-splicing fitness of 0.0105. C82G A120G C150G U176A gave a reverse-splicing fitness of 0.00652. Variant C82G A120U A145C C150U U176G has a reverse-splicing fitness of 0.00871. For C82G A120U A145C C150U U176A, the reverse-splicing fitness was 0.0158. C82G A120U A145C C150U U176C gave a reverse-splicing fitness of 0.0197. For C82G A120U A145C C150A U176A, the reverse-splicing fitness was 0.00467. Work on C82G A120U A145C C150A U176C yielded a reverse-splicing fitness of 0.00532. Work on C82G A120U A145C C150A U176G yielded a reverse-splicing fitness of 0.00299. In the case of C82G A120G A145G C150A C169G U176C, the reverse-splicing fitness is reported as 0.0296. For C82G A120G A145G C150A C169G U176A, the reverse-splicing fitness was 0.0188. For C82G A120G A145G C150A C169G U176G, the reverse-splicing fitness was 0.00507. C82G A120U A145C C169U U176G gave a reverse-splicing fitness of 0.00148. In the case of C82G A120U A145C C169U U176C, the reverse-splicing fitness is reported as 0.00223. With C82G A120U A145C C169U U176A the reverse-splicing fitness was 0.00266. C82G A120U A145C C150U C169G gave a reverse-splicing fitness of 0.003. With C82G A120U A145C C150U C169A the reverse-splicing fitness was 0.00185. C82G A120U A145C C150U C169U gave a reverse-splicing fitness of 0.00351. C82G A120G A145U C150G C169G U176A gave a reverse-splicing fitness of 0.00742. In the case of C82G A120G A145U C150G C169G U176G, the reverse-splicing fitness is reported as 0.00385. With C82G A120G A145U C150G C169G U176C the reverse-splicing fitness was 0.00564. In the case of C82G A120U A145C C150G C169G, the reverse-splicing fitness is reported as 0.00253. Work on C82G A120U A145C C150G C169U yielded a reverse-splicing fitness of 0.00302. C82G A120U A145C C150G C169A gave a reverse-splicing fitness of 0.00195. C82G A120U A145U C150G gave a reverse-splicing fitness of 0.0173. With C82G A120U A145U C150A the reverse-splicing fitness was 0.0151. C82G A120G A145U C150U C169G showed a reverse-splicing fitness of 0.0343. C82G A120G A145U C150U C169U showed a reverse-splicing fitness of 0.0183. For C82G A120G A145U C150U C169A, the reverse-splicing fitness was 0.0199. C82G A120G C150A C169A U176G showed a reverse-splicing fitness of 0.00604. C82G A120G C150A C169A U176A showed a reverse-splicing fitness of 0.0208. In the case of C82G A120G C150A C169A U176C, the reverse-splicing fitness is reported as 0.0244. C82G A120U A145G C169G gave a reverse-splicing fitness of 0.00688. C82G A120U A145G C169U showed a reverse-splicing fitness of 0.00713. Variant C82G A120U A145G C169A has a reverse-splicing fitness of 0.00321. C82G A120G A145G C150G showed a reverse-splicing fitness of 0.00886. C82G A120G A145G C150U gave a reverse-splicing fitness of 0.0247. Variant C82G A120G A145U C150G C169U has a reverse-splicing fitness of 0.01.
